This data set addresses T1, HMGA1 third AT-hook (DBD3) peptide (UniProt P17096 81-89).
T1 chain: RKPRGRPKK
The data set can be described thus: X-ray crystallography; crystals: 5 mM MgCl2, 0.25 mM NiCl2, MPD up to 48%; 1:2 duplex:peptide; 2.27 A; only one of two AATT sites occupied; Crystallization by vapor diffusion: 25 mM Tris-HCl pH 7.5, 25 mM ammonium acetate, 5 mM MgCl2, 0.25 mM NiCl2, 5% MPD (raised to 48%), 0.2 mM DNA, 0.4 mM peptide, 4 C. To be noted: blunt; self-complementary, 2 copies of the strand.

B1: d(CGAATTAATTCG)2 (dsDNA)
DNA 1: CGAATTAATTCG
DNA 2: CGAATTAATTCG
As to B1, the binding result is “binds”.

(Values after paper PMC3353895, “Crystal Structure of a Complex of DNA with One AT-Hook of HMGA1”.)
